Among the data in paper doi:10.1101/466946 (bioRxiv, 2018) are Kd values, retold here.

The target of the assay is recombinant full-length CIN85 (human, UniProt Q96B97 1-665). The assay is described as follows: SPR.
Sequence of recombinant full-length CIN85 (Q96B97 whole entry): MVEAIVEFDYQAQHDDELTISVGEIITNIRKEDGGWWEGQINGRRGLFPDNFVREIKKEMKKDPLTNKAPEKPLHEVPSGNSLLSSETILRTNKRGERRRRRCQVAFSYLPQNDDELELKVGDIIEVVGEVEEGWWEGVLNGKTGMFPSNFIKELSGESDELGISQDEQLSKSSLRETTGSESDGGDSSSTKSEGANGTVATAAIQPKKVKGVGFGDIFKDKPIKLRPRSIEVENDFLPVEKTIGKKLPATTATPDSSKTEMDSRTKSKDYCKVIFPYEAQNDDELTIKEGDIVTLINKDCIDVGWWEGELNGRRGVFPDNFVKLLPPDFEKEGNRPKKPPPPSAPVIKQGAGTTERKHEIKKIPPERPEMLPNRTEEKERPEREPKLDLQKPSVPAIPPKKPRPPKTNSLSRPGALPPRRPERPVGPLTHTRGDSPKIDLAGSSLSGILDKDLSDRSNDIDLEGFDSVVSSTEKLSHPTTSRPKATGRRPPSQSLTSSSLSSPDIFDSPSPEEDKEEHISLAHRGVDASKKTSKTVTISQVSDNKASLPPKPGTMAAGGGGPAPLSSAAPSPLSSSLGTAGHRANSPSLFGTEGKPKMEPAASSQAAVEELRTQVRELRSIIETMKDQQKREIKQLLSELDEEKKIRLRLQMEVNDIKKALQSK

B1: recombinant PHD2 (enzyme, human, UniProt Q9GZT9 1-426, looked up)
chain: MANDSGGPGGPSPSERDRQYCELCGKMENLLRCSRCRSSFYCCKEHQRQDWKKHKLVCQGSEGALGHGVGPHQHSGPAPPAAVPPPRAGAREPRKAAARRDNASGDAAKGKVKAKPPADPAAAASPCRAAAGGQGSAVAAEAEPGKEEPPARSSLFQEKANLYPPSNTPGDALSPGGGLRPNGQTKPLPALKLALEYIVPCMNKHGICVVDDFLGKETGQQIGDEVRALHDTGKFTDGQLVSQKSDSSKDIRGDKITWIEGKEPGCETIGLLMSSMDDLIRHCNGKLGSYKINGRTKAMVACYPGNGTGYVRHVDNPNGDGRCVTCIYYLNKDWDAKVSGGILRIFPEGKAQFADIEPKFDRLLFFWSDRRNPHEVQPAYATRYAITVWYFDADERARAKVKYLTGEKGVRVELNKPSDSVGKDVF
The term Kd denotes the equilibrium constant for the complex coming apart. On to B1, for which the Kd was 28.5 nM.
